The text below walks through data of PMC4694547.

For this test, the target named is HydABCD unit of the synthetic Caldanaerobacter subterranus NADH-dependent [FeFe]-hydrogenase complex (with HydC^His) (Caldanaerobacter subterranus subsp. tengcongensis). Kind of test: SEC-MALS; IMAC-purified enzyme on a MAbPac SEC-1 column, 50 mM Tris.HCl pH 7.5, 150 mM NaCl, 0.5 ml/min; peak fraction analysed by SDS-PAGE. On the technique in general: Size exclusion chromatography separates by hydrodynamic size, large species first.

As for “HydABCD unit of the synthetic Caldanaerobacter subterranus NADH-dependent [FeFe]-hydrogenase complex (with HydC^His)”, the stoichiometry N is 2.

One may read the stoichiometry N as the number of molecules, sites or subunits per partner or assembly.
